The record followed here is patent publication US8143216B2, “Modified human growth hormone” (Ambrx, Inc., priority 2004, dated 2012).

Tested on in the first series: not listed separately
Description: Pharmacokinetic studies, single s.c. dose in normal male Sprague-Dawley rats. The series is classed as in vivo, rat. The conditions noted are these: single bolus s.c. dose of 1 mg/kg in rats, FIG. 15. The method, then: Pharmacokinetic properties of PEG-modified growth hormone compounds were compared to each other and to nonPEGylated growth hormone in male Sprague-Dawley rats (261-425 g) obtained from Charles River Laboratories. Catheters were surgically installed into the carotid artery for blood collection. Following successful catheter installation, animals were assigned to treatment groups (three to six per group) prior to dosing. Animals were dosed subcutaneously with 1 mg/kg of compound in a dose volume of 0.41-0.55 ml/kg. Blood samples were collected at various time points via the indwelling catheter and into EDTA-coated microfuge tubes. Plasma was collected after centrifugation, and stored at −80° C. until analysis. Compound concentrations were measured using antibody sandwich growth hormone ELISA kits from either BioSource International (Camarillo, Calif.) or Diagnostic Systems Laboratories (Webster, Tex.). Concentrations were calculated using standards corresponding to the analog that was dosed. Pharmacokinetic parameters were estimated using the modeling program WinNonlin (Pharsight, version 4.1). Noncompartmental analysis with linear-up/log-down trapezoidal integration was used, and concentration data was uniformly weighted.
Rats (n=3-4 per group) were given a single bolus dose of 1 mg/kg hGH wild-type protein (WHO hGH), His-tagged hGH polypeptide (his-hGH), or His-tagged hGH polypeptide comprising non-natural amino acid p-acetyl-phenylalanine at position 92 covalently linked to 30 kDa PEG (30 KPEG-pAF92(his)hGH). Plasma samples were taken over the indicated time intervals and assayed for injected compound as described.
Rats (n=3-6 per group) were given a single bolus dose of 1 mg/kg protein. hGH polypeptides comprising non-natural amino acid p-acetyl-phenylalanine covalently linked to 30 kDa PEG at each of six different positions were compared to WHO hGH and (his)-hGH. Plasma samples were taken over the indicated time intervals and assayed for injected compound as described. Concentration vs time curves were evaluated by noncompartmental analysis (Pharsight, version 4.1). Values shown are averages (+/− standard deviation). Cmax: maximum concentration; terminal t1/2: terminal half-life; AUC0->inf: area under the concentration-time curve extrapolated to infinity; MRT: mean residence time; Cl/f: apparent total, plasma clearance; Vz/f: apparent volume of distribution during terminal phase.
As to “F92pAF-30KD PEG: His-tagged hGH polypeptide comprising p-acetyl-phenylalanine at position 92 covalently linked to 30 kDa PEG”, the “circulation (plasma concentrations) compared to control hGH” value is recorded as “dramatically extended circulation compared to control hGH”.

The same series, now with this note: single-dose 1 mg/kg bolus s.c., normal male Sprague-Dawley rats.
Take “F92pAF-30KD PEG: His-tagged hGH polypeptide comprising p-acetyl-phenylalanine at position 92 covalently linked to 30 kDa PEG”: the “AUC0−>inf” value is on record as 10,539 ng × hr/ml, the Cl/f turned out to be 2.25 mL/min/kg, the Cmax amounted to 663 ng/mL and the mean residence time MRT amounted to 15.05 h. Further, the “Terminal t1/2” value amounted to 4.51 h.

Turning to “Y143pAF-30KPEG: hGH polypeptide comprising p-acetyl-phenylalanine at position 143 covalently linked to 30 kDa PEG”, the “AUC0−>inf” value was 17,494 ng × hr/ml, the Cl/f was 0.983 mL/min/kg, the maximum concentration (Cmax) worked out at 803 ng/mL and the mean residence time MRT is listed as 18.83 h. Further, the “Terminal t1/2” value was determined as 6.02 h.

For the substance “G131pAF-30KPEG: hGH polypeptide comprising p-acetyl-phenylalanine at position 131 covalently linked to 30 kDa PEG”, the “AUC0−>inf” value is given as 6,978 ng × hr/ml, the Cl/f was 2.68 mL/min/kg, the highest concentration (Cmax) is 497 ng/mL and the MRT is given as 14.28 h. Moreover, the “Terminal t1/2” value is on record as 4.41 h.

On to “R134pAF-30KD PEG: hGH polypeptide comprising p-acetyl-phenylalanine at position 134 covalently linked to 30 kDa PEG”, for which the “AUC0−>inf” value is given as 7,304 ng × hr/ml, the Cl/f amounted to 2.52 mL/min/kg, the Cmax amounted to 566 ng/mL and the MRT is on record as 12.15 h. In addition, the “Terminal t1/2” value was found to be 4.36 h.

With “K145pAF-30KPEG: hGH polypeptide comprising p-acetyl-phenylalanine at position 145 covalently linked to 30 kDa PEG”, the “AUC0−>inf” value is listed as 13,162 ng × hr/ml, the Cl/f was determined as 1.47 mL/min/kg, the peak concentration (Cmax) amounted to 634 ng/mL and the mean residence time MRT came to 17.82 h. Besides, the “Terminal t1/2” value turned out to be 5.87 h.

The target in the next series is T1, rat GHR ECD (L43R) (Rattus norvegicus, UniProt P16310, L61R).
T1 construct: (GHR ECD, amino acids S29-T238) was cloned into pET20b vector; made in house
T1 sequence (P16310 47-256 L61R): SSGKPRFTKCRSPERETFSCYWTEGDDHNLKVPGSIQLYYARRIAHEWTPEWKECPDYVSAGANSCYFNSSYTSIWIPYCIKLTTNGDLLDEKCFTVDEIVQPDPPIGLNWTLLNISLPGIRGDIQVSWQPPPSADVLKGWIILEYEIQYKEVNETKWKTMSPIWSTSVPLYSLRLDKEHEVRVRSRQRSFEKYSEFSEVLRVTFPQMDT
The series is described as follows: Biacore analysis of binding of GH to GHR. The following applies: rat GHR ECD (L43R) immobilized on a CM5 chip, bivalent analyte model. The method, then:
Cloning and purification of rat GH receptor The extracellular domain of rat GH receptor (GHR ECD, amino acids S29-T238) was cloned into pET20b vector (Novagen) between Nde I and Hind III sites in frame with C-terminal 6H is tag. A mutation of L43 to R was introduced to further approximate the human GH receptor binding site (Souza et al., Proc Natl Acad Sci USA. (1995) 92(4): 959-63). Recombinant protein was produced in BL21 (DE3) E. coli cells (Novagen) by induction with 0.4 mM IPTG at 30° C. for 4-5 hours. After lysing the cells, the pellet was washed four times by resuspending in a dounce with 30 mL of 50 mM Tris, pH 7.6, 100 mM NaCl, 1 mM EDTA, 1% Triton X-100, and twice with the same buffer without Triton X-100. […] Refolding was accomplished by means of passing an aliquot of the inclusion body solution through a S100 (Sigma) gel filtration column, equilibrated with 50 mM Tris, pH 7.8, 1 M L-arginine, 3.7 mM cystamine, 6.5 mM cysteamine. Fractions containing soluble protein were combined and dialyzed against 50 mM Tris, pH 7.6, 200 mM NaCl, 10% glycerol. The sample was briefly centrifuged to remove any precipitate and incubated with an aliquot of Talon resin (Clontech), according to manufacturer's instructions. After washing the resin with 20 volumes of dialysis buffer supplemented with 5 mM imidazole, protein was eluted with 120 mM imidazole in dialysis buffer. Finally, the sample was dialyzed overnight against 50 mM Tris, pH 7.6, 30 mM NaCl, 1 mM EDTA, 10% glycerol, centrifuged briefly to remove any precipitate, adjusted to 20% glycerol final concentration, aliquoted and stored at −80 C. Concentration of the protein was measured by OD(280) using calculated extinction coefficient of ε=65,700 M^−1*cm^−1.
Approximately 600-800 RUs of soluble GHR ECD was immobilized on a Biacore™ CM5 chip, using a standard amine-coupling procedure, as recommended by the manufacturer. […] See, e.g., Cunningham et al. J Mol. Biol. (1993) 234(3): 554-63 and Wells J A. Proc Natl Acad Sci USA (1996) 93(1): 1-6).
Various concentrations of wild type or mutant GH (0.1-300 nM) in HBS-EP buffer (Biacore™, Pharmacia) were injected over the GHR surface at a flow rate of 40 μl/min for 4-5 minutes, and dissociation was monitored for 15 minutes post-injection. The surface was regenerated by a 15 second pulse of 4.5M MgCl2. […] Reference cell with no receptor immobilized was used to subtract any buffer bulk effects and non-specific binding.
Kinetic binding data obtained from GH titration experiments was processed with BiaEvaluation 4.1 software (BIACORE™). […] Equilibrium dissociation constants (Kd) were calculated as ratios of individual rate constants (koff/kon).
Substance “P133pAF: hGH with p-acetyl-phenylalanine (pAF) substituted for P133” yielded a kon of 640000 M⁻¹ s⁻¹.

On to “Y103pAF: hGH with p-acetyl-phenylalanine (pAF) substituted for Y103”, for which the kon is approximately 6000 M⁻¹ s⁻¹.

“N99pAF: hGH with p-acetyl-phenylalanine (pAF) substituted for N99” showed an on-rate constant (kon) of 220000 M⁻¹ s⁻¹.

As to “R134pAF: hGH with p-acetyl-phenylalanine (pAF) substituted for R134”, the kon turned out to be 840000 M⁻¹ s⁻¹.

Regarding “G136pAF: hGH with p-acetyl-phenylalanine (pAF) substituted for G136”, the on-rate constant (kon) was 620000 M⁻¹ s⁻¹.

On to “Y143pAF: hGH with p-acetyl-phenylalanine (pAF) substituted for Y143”, for which the on-rate (kon) turned out to be 780000 M⁻¹ s⁻¹.

As for “F92pAF-30KD PEG: His-tagged hGH polypeptide comprising p-acetyl-phenylalanine at position 92 covalently linked to 30 kDa PEG”, the on-rate (kon) was 130000 M⁻¹ s⁻¹.

With “F92pAF-5KD PEG: hGH comprising p-acetyl-phenylalanine at position 92 covalently linked to a 5 kDa PEG molecule”, the kon was determined as 620000 M⁻¹ s⁻¹.

Substance “F139pAF: hGH with p-acetyl-phenylalanine (pAF) substituted for F139” displayed a kon of 680000 M⁻¹ s⁻¹.

Regarding “K140pAF: hGH with p-acetyl-phenylalanine (pAF) substituted for K140”, the kon turned out to be 720000 M⁻¹ s⁻¹.

In turn, “F92pAF: hGH with p-acetyl-phenylalanine (pAF) substituted for F92” had an association rate constant (kon) of 860000 M⁻¹ s⁻¹.

Turning to “K145pAF: hGH with p-acetyl-phenylalanine (pAF) substituted for K145”, the association rate constant (kon) was 640000 M⁻¹ s⁻¹.

“F92pAF-20KD PEG: hGH comprising p-acetyl-phenylalanine at position 92 covalently linked to a 20 kDa PEG molecule” came in with a kon of 170000 M⁻¹ s⁻¹.

Take “G131pAF: hGH with p-acetyl-phenylalanine (pAF) substituted for G131”: the on-rate (kon) worked out at 600000 M⁻¹ s⁻¹.

“S95pAF: hGH with p-acetyl-phenylalanine (pAF) substituted for S95”: the on-rate (kon) is 70000 M⁻¹ s⁻¹.

In turn, “R16pAF: hGH with p-acetyl-phenylalanine (pAF) substituted for R16” gave an on-rate (kon) of 680000 M⁻¹ s⁻¹.

As to “E88pAF: hGH with p-acetyl-phenylalanine (pAF) substituted for E88”, the association rate constant (kon) came to 680000 M⁻¹ s⁻¹.

On to “R134pAF-5KD PEG: hGH comprising p-acetyl-phenylalanine at position 134 linked to 5 kDa PEG”, for which the kon is 680000 M⁻¹ s⁻¹.

“R94pAF: hGH with p-acetyl-phenylalanine (pAF) substituted for R94” gave a kon of 560000 M⁻¹ s⁻¹.

With “Q91pAF: hGH with p-acetyl-phenylalanine (pAF) substituted for Q91”, the on-rate (kon) came to 660000 M⁻¹ s⁻¹.

“Y35pAF: hGH with p-acetyl-phenylalanine (pAF) substituted for Y35” returned an on-rate constant (kon) of 780000 M⁻¹ s⁻¹.

In the case of “R134pAF-30KD PEG: hGH polypeptide comprising p-acetyl-phenylalanine at position 134 covalently linked to 30 kDa PEG”, the kon was found to be 70000 M⁻¹ s⁻¹.

“A155pAF: hGH with p-acetyl-phenylalanine (pAF) substituted for A155” yielded a kon of 580000 M⁻¹ s⁻¹.

For the substance “N12pAF: hGH with p-acetyl-phenylalanine (pAF) substituted for N12”, the kon is 1.25e+06 M⁻¹ s⁻¹.

The substance “Y111pAF: hGH with p-acetyl-phenylalanine (pAF) substituted for Y111” showed a kon of 840000 M⁻¹ s⁻¹.

As to “T135pAF: hGH with p-acetyl-phenylalanine (pAF) substituted for T135”, the kon came to 720000 M⁻¹ s⁻¹.
